The results in this text go back to article PMC2922993.

The target in assay [1] is RAG2 PHD finger, 414-487 (UniProt P21784). Kind of assay: ITC with soluble peptides. As to conditions: reference: unphosphorylated H3K4me3 peptide.
The target of assay [2] is ING2 PHD finger (UniProt Q9H160). Briefly: ITC with soluble peptides. As to conditions: reference: H3K4me3 peptide; sites T3.
Assay [3] concerns the target inhibitor of growth 2 (ING2) PHD finger. Briefly: ITC.
Assay [4] has as its target JMJD2A double tudor domain (UniProt O75164). Briefly: ITC. In general terms: ITC needs no label: the signal is the heat of the interaction.

Chain of JMJD2A double tudor domain (O75164 895-1011): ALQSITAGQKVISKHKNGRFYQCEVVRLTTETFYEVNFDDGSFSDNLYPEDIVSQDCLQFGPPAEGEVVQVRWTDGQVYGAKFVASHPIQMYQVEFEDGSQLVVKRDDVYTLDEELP

With “histone H3 (from UniProt P68431) H3K4me3 peptide with T6ph”, the KD entry in assay [1] (sites T6) was “lost; reference 17.8”.

On to “histone H3 (from UniProt P68431) H3K4me3 peptide with T3ph”, for which the KD result in assay [2] is “lost; reference 0.98”; in assay [1] (sites T3), “lost; reference 17.8”.

Regarding H3K4me3T6ph peptide (ITC), the Kd came out at 19.9 µM in assay [3] and 1.8 µM in assay [4].

Usually Kd stands for the constant that tells how readily two partners part at equilibrium.
